Earlier results as cited in article PMC3447994.

Molecular target: IgG Fc Fc (Homo sapiens) [IgG part: P01857]

FcγRIIIa, sequence (P08637 17-254): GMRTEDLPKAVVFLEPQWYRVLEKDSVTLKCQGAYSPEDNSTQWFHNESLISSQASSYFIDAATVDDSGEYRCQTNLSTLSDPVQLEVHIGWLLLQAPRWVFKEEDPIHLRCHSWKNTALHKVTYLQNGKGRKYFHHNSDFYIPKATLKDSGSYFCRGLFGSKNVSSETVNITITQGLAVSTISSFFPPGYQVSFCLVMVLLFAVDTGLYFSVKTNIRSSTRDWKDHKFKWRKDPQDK

Kd: 2000 nM
Substance: FcγRIIIa (from UniProt P08637)
